The subject of data set [1] is L(+)-biotinyl-aminohexanoyl-Glu-Ser-Ile-Asp-Asp-Tyr-Val-Asn-Val-Pro-Glu-Gly-OH (SEQ ID NO:13).
In data set [2] the test system is L(+)-biotinyl-aminohexanoyl-Glu-Glu-Gly-Ala-Pro-Asp-Tyr-Glu-Asn-Leu-Gln-Glu-Leu-Asn (SEQ ID NO:12).
For data set [3], the system named is L(+)-biotinyl-aminohexanoyl-Glu-Asp-Glu-Asp-Asp-Tyr-His-Asn-Pro-Gly-Gly-OH (SEQ ID NO:14).
The subject of data set [4] is compounds of SEQ ID NO:12; SEQ ID NO: 13; or SEQ ID NO: 14.

For the substance “recombinant full-length human Syk (p72syk protein tyrosine kinase)”, the “phosphorylation of the peptide by the kinase, time resolved fluorescence resonance energy transfer” value in data set [1], in data set [2] and in data set [3] was “are phosphorylated by Syk” throughout. Further, the “fluorescence units (TR-FRET phosphorylation assay, 370 nM peptide, 10 nM Syk, 20 µM ATP)” value in data set [4] is given as 20,000 to 30,000 fluorescence units.
